Results: patent US20180118799A1 (NATIONAL INSTITUTE OF ADVANCED INDUSTRIAL SCIENCE AND …, published 2018)
Where a chain is given by its changes, count along the chain named.

T1: Fc-fusion G-CSF receptor
T1 construct: also called granulocyte colony-stimulating factor receptor
T1 sequence (Q99062 whole entry, species assumed, looked up): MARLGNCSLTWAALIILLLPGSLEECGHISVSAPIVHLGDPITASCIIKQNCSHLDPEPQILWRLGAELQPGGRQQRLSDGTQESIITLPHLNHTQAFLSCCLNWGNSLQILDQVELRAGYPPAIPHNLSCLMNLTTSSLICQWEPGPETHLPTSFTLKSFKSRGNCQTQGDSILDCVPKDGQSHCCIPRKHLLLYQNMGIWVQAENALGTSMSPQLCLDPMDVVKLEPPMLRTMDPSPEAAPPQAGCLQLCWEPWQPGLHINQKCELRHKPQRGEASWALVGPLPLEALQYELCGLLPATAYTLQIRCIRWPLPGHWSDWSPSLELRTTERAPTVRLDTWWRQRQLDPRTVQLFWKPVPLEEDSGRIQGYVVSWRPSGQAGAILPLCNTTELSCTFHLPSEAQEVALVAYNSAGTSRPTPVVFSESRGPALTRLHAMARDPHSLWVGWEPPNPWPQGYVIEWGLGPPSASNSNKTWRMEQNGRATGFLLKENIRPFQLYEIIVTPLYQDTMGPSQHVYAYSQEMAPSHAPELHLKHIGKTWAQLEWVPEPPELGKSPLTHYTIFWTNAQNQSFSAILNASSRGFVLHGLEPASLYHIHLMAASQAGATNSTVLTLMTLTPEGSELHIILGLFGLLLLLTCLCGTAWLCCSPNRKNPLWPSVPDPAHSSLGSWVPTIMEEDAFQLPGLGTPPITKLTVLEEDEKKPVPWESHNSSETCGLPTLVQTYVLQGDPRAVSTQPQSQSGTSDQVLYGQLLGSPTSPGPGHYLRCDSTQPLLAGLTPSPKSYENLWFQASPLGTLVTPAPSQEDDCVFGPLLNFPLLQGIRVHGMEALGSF

B1: filgrastim (ligand)
chain: MTPLGPASSLPQSFLLKCLEQVRKIQGDGAALQEKLCATYKLCHPEELVLLGHSLGIPWAPLSSCPSQALQLAGCLSQLHSGLFLYQGLLQALEGISPELGPTLDTLQLDVADFATTIWQQMEELGMAPALQPTQGAMPAFASAFQRRAGGVLVASHLQSFLEVSYRVLRHLAQP
notes: Its source in the assay is not described
B2: G-CSF(C170) (ligand)
chain: SGPASSLPQSFLLKSLEQVRKIQGDGAALQEKLCATYKLCHPEELVLLGHSLGIPWAPLSSCPSQALQLAGCLSQLHSGLFLYQGLLQALEGISPELGPTLDTLQLDVADFATTIWQQMEELGMAPALQPTQGAMPAFASAFQRRAGGVLVASHLQSFLEVSYRVLRHLG
modifications: backbone cyclized: amino group of serine at the N-terminus and carbonyl group of glycine at the C-terminus linked by a peptide bond
notes: 170 amino acids; also called cyclized G-CSF(C170)
B3: G-CSF(C166) (ligand)
chain: SSLPQSFLLKSLEQVRKIQGDGAALQEKLCATYKLCHPEELVLLGHSLGIPWAPLSSCPSQALQLAGCLSQLHSGLFLYQGLLQALEGISPELGPTLDTLQLDVADFATTIWQQMEELGMAPALQPTQGAMPAFASAFQRRAGGVLVASHLQSFLEVSYRVLRHLG
modifications: backbone cyclized: amino group of serine at the N-terminus and carbonyl group of glycine at the C-terminus linked by a peptide bond
notes: also called cyclized G-CSF(C166)
B4: linear control G-CSF (ligand)
chain: B1 chain with T2A, C18S
notes: Linear polypeptide of 175 amino acids; also called linear G-CSF
B5: G-CSF(C177) (ligand)
chain: SMAPLGPASSLPQSFLLKSLEQVRKIQGDGAALQEKLCATYKLCHPEELVLLGHSLGIPWAPLSSCPSQALQLAGCLSQLHSGLFLYQGLLQALEGISPELGPTLDTLQLDVADFATTIWQQMEELGMAPALQPTQGAMPAFASAFQRRAGGVLVASHLQSFLEVSYRVLRHLAQPG
modifications: backbone cyclized: amino group of serine at the N-terminus and carbonyl group of glycine at the C-terminus linked by a peptide bond
notes: Cyclized with split inteins; also called cyclized G-CSF(C177)
B6: G-CSF(C163) (ligand)
chain: SQSFLLKSLEQVRKIQGDGAALQEKLCATYKLCHPEELVLLGHSLGIPWAPLSSCPSQALQLAGCLSQLHSGLFLYQGLLQALEGISPELGPTLDTLQLDVADFATTIWQQMEELGMAPALQPTQGAMPAFASAFQRRAGGVLVASHLQSFLEVSYRVLRHLG
modifications: backbone cyclized: amino group of serine at the N-terminus and carbonyl group of glycine at the C-terminus linked by a peptide bond
notes: also called cyclized G-CSF(C163)

Molecular target: T1, Fc-fusion G-CSF receptor
Assay: SPR, Biacore T200, Fc-fusion G-CSF receptor captured on immobilized Protein A, single kinetic mode, 25 C (Example 19)
Procedure: (§1) First, commercially available Protein A (Nacalai Tesque, Inc.) was immobilized on a flow cell of a sensor chip CM5 (GE Health care) by using an amine coupling reaction. Next, a running buffer HBS-P (10 mM HEPES pH 7.4, 150 mM NaCl, and 0.05% v/v Surfactant P20) in which an Fc-fusion G-CSF receptor had been dissolved was added to immobilize the receptor on the chip. The SPR measurement was carried out using Biacore T200 (Biacore) and the reaction temperature was 25° C. A 2-fold dilution series from 1.25 nM to 20 nM of the sample solution was prepared, and a single kinetic mode was used for measurement and analysis. When compared with Example 8, this Example had improvements such as use of Biacore T200, which has higher sensitivity than Biacore T100, and use of commercially available Protein A. The improvements helped increase the sensitivity and reproducibility of measurement. Then, the linear G-CSF, G-CSF(C177), and G-CSF(C163) as measured in Example 8 were remeasured and the resulting analysis values were used for comparison.
(§2) The observation results were analyzed using BIAevaluation version 4.1 to calculate a dissociation constant.

**Q.** With B1 as the binder, how does the Kd read?
**A.** Its Kd is 0.27 nM.

**Q.** Which Kd does the source give for B2 here?
**A.** The Kd was 0.05 nM.

**Q.** Which Kd does the source give for B3 here?
**A.** The Kd was 0.06 nM.

Molecular target: T1, Fc-fusion G-CSF receptor
Assay: SPR, Biacore T100, Fc-fusion G-CSF receptor captured on immobilized Protein G, single kinetic mode, 25 C (Example 8)
Procedure: First, Protein G was immobilized on a flow cell of a sensor chip CMS (GE Health care) by using a maleimide coupling reaction. Next, a running buffer HBS-P (10 mM HEPES pH 7.4, 150 mM NaCl, and 0.05% v/v Surfactant P20) in which an Fc-fusion G-CSF receptor had been dissolved was added to immobilize the receptor on the chip. The SPR measurement was carried out using Biacore T100 (Biacore) and the reaction temperature was 25° C. A 2-fold dilution series from 1.25 nM to 20 nM of the sample solution was prepared, and a single kinetic mode was used for measurement and analysis.
as §2

**Q.** How did the Kd turn out when B4 was run?
**A.** Its Kd is 0.43 nM.

**Q.** B5 was tested. Which Kd did it give?
**A.** The Kd was 0.57 nM.

**Q.** How did the Kd turn out when B6 was run?
**A.** The Kd was 0.57 nM.

Molecular target: T1, Fc-fusion G-CSF receptor
Assay: SPR, Biacore T200, Fc-fusion G-CSF receptor captured on immobilized Protein A, single kinetic mode, 25 C (Example 19, remeasured)
Procedure: as §1

**Q.** With B4 as the binder, how does the Kd read?
**A.** The Kd was 0.08 nM.

**Q.** Which Kd does the source give for B5 here?
**A.** The Kd was 0.06 nM.

**Q.** Which Kd does the source give for B6 here?
**A.** Its Kd is 0.1 nM.
